Among the data in publication PMC7693034, “Identification of Amino Acid Residues Responsible for C−H Activation in Type‐III Copper Enzymes by Generating Tyrosinase Activity in a Catechol Oxidase” (Angewandte Chemie (International Ed. in English), 2020) are Km and kcat values, retold here.

The labels stand for the following.
B1: CgAUS (aurone synthase from Coreopsis grandiflora) (Coreopsis grandiflora; C182S) (protein)
chain: APITAPDITSICKDASSGIGNQEGAIRTRKCCPPSLGKKIKDFQFPNDKKVRMRWPAHKGTKKQVDDYRRAIAAMRALPDDDPRSFVSQAKIHCAYSNGGYTQVDSGFPDIDIQIHNSWLFFPFHRWYLYFYERILGSLIDEPNFALPYWKWDEPKGMPISNIFLGDASNPLYDQYRDANHIEDRIVDLDYDGKDKDIPDQQQVACNLSTVYRDLVRNGVDPTSFFGGKYVAGDSPVANGDPSVGSVEAGSHTAVHRWVGDPTQPNNEDMGNFYSAGYDPVFYIHHANVDRMWKLWKELRLPGHVDITDPDWLNASYVFYDENKDLVRVYNKDCVNLDKLKYNFIENSKEVFPWRNSRPPQRRKSAQVATTGDVKTVEQTKFPVRLNQIFKVRVKRPAVNRTEEEKDQANEVLLIKKIKYDSGKFVKFDVFVNDKLKDGVFTTPCDPEYAGGFAQIPHNDKRSMVMTSTARFGLNELLEDTNTEGEEYATVTLVPRTGCEDLTVGEIKIELVPIPKA
notes: recombinant from E. coli, purified to homogeneity
B2: CgAUS (aurone synthase from Coreopsis grandiflora) (Coreopsis grandiflora; R342D/T338D) (protein)
chain: APITAPDITSICKDASSGIGNQEGAIRTRKCCPPSLGKKIKDFQFPNDKKVRMRWPAHKGTKKQVDDYRRAIAAMRALPDDDPRSFVSQAKIHCAYCNGGYTQVDSGFPDIDIQIHNSWLFFPFHRWYLYFYERILGSLIDEPNFALPYWKWDEPKGMPISNIFLGDASNPLYDQYRDANHIEDRIVDLDYDGKDKDIPDQQQVACNLSTVYRDLVRNGVDPTSFFGGKYVAGDSPVANGDPSVGSVEAGSHDAVHDWVGDPTQPNNEDMGNFYSAGYDPVFYIHHANVDRMWKLWKELRLPGHVDITDPDWLNASYVFYDENKDLVRVYNKDCVNLDKLKYNFIENSKEVFPWRNSRPPQRRKSAQVATTGDVKTVEQTKFPVRLNQIFKVRVKRPAVNRTEEEKDQANEVLLIKKIKYDSGKFVKFDVFVNDKLKDGVFTTPCDPEYAGGFAQIPHNDKRSMVMTSTARFGLNELLEDTNTEGEEYATVTLVPRTGCEDLTVGEIKIELVPIPKA
notes: as for B1
B3: CgAUS (aurone synthase from Coreopsis grandiflora) (Coreopsis grandiflora; T338D) (protein)
chain: APITAPDITSICKDASSGIGNQEGAIRTRKCCPPSLGKKIKDFQFPNDKKVRMRWPAHKGTKKQVDDYRRAIAAMRALPDDDPRSFVSQAKIHCAYCNGGYTQVDSGFPDIDIQIHNSWLFFPFHRWYLYFYERILGSLIDEPNFALPYWKWDEPKGMPISNIFLGDASNPLYDQYRDANHIEDRIVDLDYDGKDKDIPDQQQVACNLSTVYRDLVRNGVDPTSFFGGKYVAGDSPVANGDPSVGSVEAGSHDAVHRWVGDPTQPNNEDMGNFYSAGYDPVFYIHHANVDRMWKLWKELRLPGHVDITDPDWLNASYVFYDENKDLVRVYNKDCVNLDKLKYNFIENSKEVFPWRNSRPPQRRKSAQVATTGDVKTVEQTKFPVRLNQIFKVRVKRPAVNRTEEEKDQANEVLLIKKIKYDSGKFVKFDVFVNDKLKDGVFTTPCDPEYAGGFAQIPHNDKRSMVMTSTARFGLNELLEDTNTEGEEYATVTLVPRTGCEDLTVGEIKIELVPIPKA
notes: as for B1
B4: CgAUS (aurone synthase from Coreopsis grandiflora) (Coreopsis grandiflora; R342D) (protein)
chain: APITAPDITSICKDASSGIGNQEGAIRTRKCCPPSLGKKIKDFQFPNDKKVRMRWPAHKGTKKQVDDYRRAIAAMRALPDDDPRSFVSQAKIHCAYCNGGYTQVDSGFPDIDIQIHNSWLFFPFHRWYLYFYERILGSLIDEPNFALPYWKWDEPKGMPISNIFLGDASNPLYDQYRDANHIEDRIVDLDYDGKDKDIPDQQQVACNLSTVYRDLVRNGVDPTSFFGGKYVAGDSPVANGDPSVGSVEAGSHTAVHDWVGDPTQPNNEDMGNFYSAGYDPVFYIHHANVDRMWKLWKELRLPGHVDITDPDWLNASYVFYDENKDLVRVYNKDCVNLDKLKYNFIENSKEVFPWRNSRPPQRRKSAQVATTGDVKTVEQTKFPVRLNQIFKVRVKRPAVNRTEEEKDQANEVLLIKKIKYDSGKFVKFDVFVNDKLKDGVFTTPCDPEYAGGFAQIPHNDKRSMVMTSTARFGLNELLEDTNTEGEEYATVTLVPRTGCEDLTVGEIKIELVPIPKA
notes: as for B1
B5: CgAUS (aurone synthase from Coreopsis grandiflora) (Coreopsis grandiflora; C182S/R342D/T338D) (protein)
chain: APITAPDITSICKDASSGIGNQEGAIRTRKCCPPSLGKKIKDFQFPNDKKVRMRWPAHKGTKKQVDDYRRAIAAMRALPDDDPRSFVSQAKIHCAYSNGGYTQVDSGFPDIDIQIHNSWLFFPFHRWYLYFYERILGSLIDEPNFALPYWKWDEPKGMPISNIFLGDASNPLYDQYRDANHIEDRIVDLDYDGKDKDIPDQQQVACNLSTVYRDLVRNGVDPTSFFGGKYVAGDSPVANGDPSVGSVEAGSHDAVHDWVGDPTQPNNEDMGNFYSAGYDPVFYIHHANVDRMWKLWKELRLPGHVDITDPDWLNASYVFYDENKDLVRVYNKDCVNLDKLKYNFIENSKEVFPWRNSRPPQRRKSAQVATTGDVKTVEQTKFPVRLNQIFKVRVKRPAVNRTEEEKDQANEVLLIKKIKYDSGKFVKFDVFVNDKLKDGVFTTPCDPEYAGGFAQIPHNDKRSMVMTSTARFGLNELLEDTNTEGEEYATVTLVPRTGCEDLTVGEIKIELVPIPKA
notes: as for B1

Substrate in the series: NCCc1ccc(O)cc1
The series is described as follows: enzyme kinetics, monophenolase activity. The format is biochemical, Coreopsis grandiflora. As to conditions: type-III copper enzyme. From the text:
enzyme kinetics, monophenolase activity on CgAUS (aurone synthase from Coreopsis grandiflora)
Usually Km stands for the concentration of substrate that gives half-maximal velocity. Usually kcat stands for the maximal rate divided by the concentration of active sites. With B1, the Km came out at 3.59 ± 0.33 mM and the kcat was found to be 0.55 ± 0.04 s⁻¹.

Take B2: the Km was found to be 1.09 ± 0.09 mM and the kcat was found to be 9.48 ± 0.55 s⁻¹.

As for B3, the Km amounted to 30.9 ± 7.27 mM and the kcat amounted to 2.14 ± 0.16 s⁻¹.

Turning to B4, the Km was found to be 4.01 ± 0.29 mM and the kcat was determined as 8.26 ± 0.48 s⁻¹.

In the case of B5, the Km is 0.02 ± 0.00 mM and the kcat worked out at 6.52 ± 0.39 s⁻¹.
